The record followed here is patent US20260108606A1, “TREATMENT OF AUTOIMMUNE DISEASES HAVING A PATHOGENIC T CELL STATE” (THE BRIGHAM AND WOMEN'S HOSPITAL, INC., priority 2023, published 2026).

Type in all cases: cell-based, mouse
In one assay the test system is TCF1. Kind of assay: Th17 in vitro differentiation, TCF1 and RORγt expression by flow cytometry. On the procedure: (§1) Single-cell suspension were prepared from spleen and lymph nodes, and CD4 T cells isolated using the anti-CD4 microbeads (Miltenyi, catalogue #130-117-043). Subsequently, naïve CD4 T cells (CD62L^+ CD44^− CD25^−) were enriched through fluorescence activated cell sorting (FACS) performed on a BD FACSAria Ilu. Naïve CD4 T cells were activated for 3 days with 1 ug/ml of plate-bound anti-CD3 (BioXcell, BP0001) and anti-CD28 (BioXcell, BE0015), plus the addition of 20 ng/ml of IL-1B (R&D Systems), 25 ng/ml of IL-6 (R&D Systems), 20 ng/ml of IL-23 (R&D Systems), 20 ug/ml of anti-IFNγ (BioXcell, BE0055) and 20 μg/ml of anti-IL4 (BioXcell, BE0045) for pathogenic Th17; 2 ng/ml of TGFβ1, 25 ng/ml of IL-6, 20 μg/ml of anti-IFN and 20 μg/ml of anti-IL4 for non-pathogenic Th17. Cells were then rested in un-coated plates in absence of anti-CD3/anti-CD28 stimulation for 2 days. For some experiments, cells were re-stimulated with 1 ug/ml of anti-CD3/anti-CD28 for 1-2 days.
(§2) Single-cell suspensions were firstly stained to discriminate live cells with UV Zombie (Biolegend) in PBS, and then in FACS buffer (2% bovine serum albumin in PBS) with antibodies for surface antigens. […] Fully stained samples were read either at a BD LSRFortessa or BD FACSymphony. The data were analyzed with FlowJo software (TreeStar) and GraphPad Prism software (GraphPad).
Background: A flow cytometer gives signals particle by particle.

In a further assay the test system is Tcf7 locus. Kind of assay: Tcf7 locus reporter (Tcf7-GFP) activity in Th17 cells. Particulars: CD4 T cells of Tcf7 locus reporter strain, IL-1β+IL-6 with or without IL-23 for 3 days, then 2 days of rest (FIG. 8C). On the procedure:
as §1, §2

The test system of the next assay is CD4+ T cells. The assay is described as follows: Glycolytic rate assay using Seahorse (ECAR). Particulars: WT cells differentiated with IL-1β+IL-6 with or without IL-23 (FIG. 12G). The text has this:
FIG. 12A-12K—TCF1 deficiency obviates the need for IL-23 for Th17 pathogenicity. (FIG. 12A) Schematic view of in vitro differentiation with IL-1b and IL-6 for adoptive transfer experiments. (FIG. 12B-12D) CNS-infiltrating immune cells (FIG. 12B-12C) or immune cells from draining lymph nodes (dLN) (FIG. 12D) were harvested from mice at peak of disease (EAE score 1-5) and analyzed by flow cytometry. (FIG. 12B) Summary data of the frequency of Foxp3+ cells within the 2D2 cell population infiltrating the CNS (WT n=11; KO n=12). (FIG. 12C) Summary data of cytokine production by host CD4+ T cells infiltrating the CNS (WT n=10; KO n=12). (FIG. 12D) Summary data of the frequency of SLAMF6+ and CXCR6+ cells within 2D2+ cells in the dLN of recipients of 2D2 TCF1 WT (n=8) and TCF1cKO (n=10) cells. […] (FIG. 12I-12J) CNS-infiltrating 2D2 cells were harvested and FACS-sorted from mice at peak of disease (EAE score 1-5) and analyzed by confocal microscopy. […]
Th17 pathogenicity is driven by IL-23 and has been associated with increased glycolytic activity and lipid metabolism, which in turn, supply crucial sterol ligands to boost RORγt transcriptional activity. […] The disclosure further assessed the intra-cellular lipid content of 2D2 TCF1 WT and 2D2 TCF1cKO cells isolated from the CNS of p19^−/− mice.

B1: IL-23: a cytokine critical for inducing pathogenic Th17 cells (protein, UniProt Q9NPF7 20-189; P29460 23-328, looked up)
Interleukin-23 subunit alpha: RAVPGGSSPAWTQCQQLSQKLCTLAWSAHPLVGHMDLREEGDEETTNDVPHIQCGDGCDPQGLRDNSQFCLQRIHQGLIFYEKLLGSDIFTGEPSLLPDSPVGQLHASLLGLSQLLQPEGHHWETQQIPSLSPSQPWQRLLLRFKILRSLQAFVAVAARVFAHGAATLSP
Interleukin-12 subunit beta: IWELKKDVYVVELDWYPDAPGEMVVLTCDTPEEDGITWTLDQSSEVLGSGKTLTIQVKEFGDAGQYTCHKGGEVLSHSLLLLHKKEDGIWSTDILKDQKEPKNKTFLRCEAKNYSGRFTCWWLTTISTDLTFSVKSSRGSSDPQGVTCGAATLSAERVRGDNKEYEYSVECQEDSACPAAEESLPIEVMVDAVHKLKYENYTSSFFIRDIIKPDPPKNLQLKPLKNSRQVEVSWEYPDTWSTPHSYFSLTFCVQVQGKSKREKKDRVFTDKTSATVICRKNASISVRAQDRYYSSSWSEWASVPCS
B1: the TCF1 protein expression result in the assay on TCF1 (naïve CD4+ T cells differentiated with IL-1β and IL-6 for 2 days, then increasing doses of IL-23, dose-dependent (FIG. 1F)) is given as “decreased significantly”. Further, the “proportion of TCF1lo RORγt hi cells” value in the assay on TCF1 (pTh17 differentiated for 3 days, then fresh IL-23 added in the culture media (FIG. 8D)) is “increased proportion”. Besides, the “Tcf7 locus reporter activity” value in the assay with Tcf7 locus was “significantly decreased”. In addition, the “glycolysis (extracellular acidification rate; ECAR)” value with CD4+ T cells was “increased glycolysis”.
